B1: Icavirus (nucleic acid)
DNA: CGAAGTTTAAGCTAAGCACCCTCGGGCGTTCCCGGATTATGTGATCACATCAATTTGATGGCTGGTCACCACGCAACGCCTGGAGAGATACTCTTACTTTTCTCTTAAGATCCCCGGTCATTTGACGCTTGTAGGATGATAGGGTTATTTTCCACTATAAATACTTTCATACTCTTGGATGTTCTATATCCAAGACGGGAGGACCTACCCCGTACCCCTTAGAGGTGAGATGCCAAGAACAGGCCCTTTCTGTTCTCTCGACAATGGCATCATAGGCAACAAGCATCACACCAAGATTGCTAAGTTTTGTTAAGAGTTCTTCAAGCTATAGGGTGGCTGTAGCGACCTTCTGATGCCTGCGGATTTCCCCACGGAGCGATCCGTGCCACAGGGGCCAAAAGCCACGGCTAACGCCCATCAGGAGCGGCACTTACCCCGTGCCCCACCCTTGAAACTTGAATGTTCACACTGGCTTCTCTCGGCTTTCTGAACTGTCTGCTTGTTGGGGCCCCGAAGGATGCCCTGGAGGTACCCCATTTTATGGGATCTGACCAGGGGACACCTCAGCTCTCTAAGTTGCTGGTGTTTAAAAAACGTCTAAGGGCCCCCACCCCTTAGGTGGAGGGATCCACCTTTCCTTTATTTTTTAAAACTCTTTTATGGTCACAATTGTTT
modifications: source: /note="Description of Unknown: Icavirus sequence"
B2: Human pegivirus 2: "an IRES is an IRES sequence of ... Human Pegivirus 2" (nucleic acid, listed as Pegivirus sp.)
DNA: AACTGTTGTTGTAGCAATGCGCATATTGCTACTTCGGTACGCCTAATTGGTAGGCGCCCGGCCGACCGGCCCCGCAAGGGCCTAGTAGGACGTGTGACAATGCCATGAGGGATCATGACACTGGGGTGAGCGGAGGCAGCACCGAAGTCGGGTGAACTCGACTCCCAGTGCGACCACCTGGCTTGGTCGTTCATGGAGGGCATGCCCACGGGAACGCTGATCGTGCAAAGGGATGGGTCCCTGCACTGGTGCCATGCGCGGCACCACTCCGTACAGCCTGATAGGGTGGCGGCGGGCCCCCCCAGTGTGACGTCCGTGGAGCGCAAC
B3: Zika Virus (nucleic acid, listed as Zika virus)
DNA: AGTTGTTGATCTGTGTGAGTCAGACTGCGACAGTTCGAGTCTGAAGCGAGAGCTAACAACAGTATCAACAGGTTTAATTTGGATTTGGAAACGAGAGTTTCTGGTC
modifications: chemistry not fully specified; the letters are possibly those of the target site
B4: Antarctic penguin virus A (nucleic acid)
DNA: CTAGGAGACTACGCAGTGGGATAAGATGACTATGATGTCGTACGGGCAGAAGCCAGTACAGTCGAAGTCGAGACCGACGTCGAGGATTTGACTCTGCCTGACCTAGTGCCATC
modifications: chemistry not fully specified; the letters are possibly those of the target site
B5: Theiler's disease-associated virus (nucleic acid)
DNA: TGATACCGTGTCCCGGTACGACCTCGCGCGTCCCCAAGCTCGCCCTGAGGGGGGAGCGTAAGGGCGCGTAGTGGGGTAGCCCCCCAAACCGAGCCACCCTAGTGAGTGACTTTAGAATGGTTAGGGAGACTACCGCCTTCGCTGTTTGGGGACCTAATGATCCGCGTGCCAGGGTTCTTCGGGTAAATCCCGGCGCGGTGTTTTGGGTTCAGGGCAGTAGGGGCAGACGGGCCAGCAGTCGCTGGTTCCTGGTACCACCACCCTATCCGGACGACCTCCCTCACGAAAGGTCGCCACGGTCTGTGGCTCGACGACGCCTATAATTCAGTCCGAGGGGCGCAGCCCTCGTTAAACTTAGGCAAGGTTCCTCGCCATTGATTTGGCCAGGGGTTTAAGTGAACGCCGCCCTTTTAATGTTTAATAGGGTTCTTTCCCGGCGGGTTGACAAACACTTCCCTGGGCTCTTCGTTGGCCTCGGTTCCTTGATGCTTCGGCACCCATGAGCGCACAGGGGGGGGACCCTGCGACAGTCCGCCAAGAGGAAAATCCTTCGGGTGACCTCGTGCGCAACCCAATCCCTTCTTCTTCCACATGGCGTGTCTGTGGTGCATGCTGTG
modifications: lipid formulation; source: /note="Description of Unknown: Theiler's disease-associated virus sequence"
B6: Rodent pegivirus (nucleic acid, listed as Pegivirus sp.)
DNA: GGACTTCGGTCCCCCTGTTACTCTGCGAGCCACCGCAGAGCCAGGGTTGGTACGCCCGAGGTGTTAGACCCCGGCCGAAAGCTCCTAACCATGGGGTTAGTAGGACGTGGTAAATGCCACTGAGGGGTTGGAGAGCTGGTAGAGCGAGTAAGTCGGCGTAAGGCCCGAGTACGGGCCTCCCAGCCCGGGTCAGCCTAAACCTGGCTGTGATACCCGGTGCATGGAGGGCGTGTCCCAACGCTCGATCGCTGTAGGGTGGGTCCCTGCAGTTGGGTGTGGCTACCCTGCTCGTACTGCTTGATAGAGTCCCGGCGGACGGACCAGCTCTCGTCAGTCCGTGGAGTTGCAC
modifications: lipid formulation
B7: Pegivirus K (nucleic acid)
DNA: AGAATGGTGTGATCCGTCGCCGCTCCAGCGGAAAGCGGGCGGGATCTAGTGGTTAGGGTTGTTCGCGTAAATCCCACACTAGTGGTACGCTCGTATAACGTGGGAGCAGCCGGTGGGGTCGACCCCCCACCTGGCGGCTGCTGAGCACCGGACGAAGCGCGGGGGGTGAACGCTAACCCGCGGCCCGGGCTGCCAACGTTAGGCACGTCTTGGCTGGAAGACGTTAAACACAGGGCCCCCCCTCAACCCTGATCCGAGGCCAGAGACCAAGGTACGCCGCCCTTTTAAAGGCGTTACTCGTCCAATAGGATCTCTCCGGCGGGTTGTCAAACCTTGCTGGCCCTGGTGATGGTTACGGGAGGGGGTGGGGCGGGGAGTAGAAGCCCCGCCCGGCATGGGGGTACCAAGCTCGGCACGCCCAGCACGCGTGGCGTAGGGGAAAAATCCTTCGGGTGACCCCTGGTACCATAAAGTAATTAACATGAGCATGCCGCTAGGGTGTGCTTTTTCTTCCTTCCTTGGGAAGGCGGTGGCACC
modifications: lipid formulation; Pegivirus K
B8: Sakobuvirus A FFUP1 (1x mut) (nucleic acid)
DNA: TCACGCGCTTTTCCGGTGGTCACCCACCGTTAGGGAGCGCCAGCGTTCGCGCTTCCGCTACCAGGTGACACACTCCTTTCCCCTCCCCCATTCCCGTTCCCATCCTCTGGACTGGTTTCTCCTCACGATTGACCAGCAGCTGGGAGCTGTTACCAGACGTTGGACAGTAAGTCCCGGATGCACTATAGGGCTGGTGGCTAGTGCTTGGTAAGCACTCAACGCCATACCTAATGTGTACCTCGGCTTGCCCTCCTGGTCGTGGTGACCGGCTGTTTCTCTTCCCTTGGCTCCAGACGGGCTGGTGTCCTACCACCACCGTTGCATGCAGACCTCCCCCTGCGCACTCGAACGCCCTGTCCCAGCAGGGTTAGTATGTGCTGTGCAGATCTGCATGTGACACCCCATCCACTGGTAGAGCAGGAAGTTGCCCTAGCTAACGCGGCAAGTATTACTTTCCGCTACACGTCCTTGAGATTCCTCGGACCTCTGGAACTAGGGTGACTGTGGGCTTGGGAAAACCCACCTTGGTCCTGTACTGCCTGATAGGGTCGCGGCTGGCCGACCAGTGGATGTAGCCAGTTGTTTTGGGAT
modifications: lipid formulation
B9: GB virus C/Hepatitis G virus (nucleic acid)
chain: CCCCCGGCACTGGGTGCAAGCCCCAGAAACCGACGCCTATCTAAGTAGACGCAATGACTCGGCGCCGACTCGGCGACCGGCCAAAAGGTGGTGGATGGGTGATGACAGGGTTGGTAGGTCGTAAATCCCGGTCACCTTGGTAGCCACTATAGGTGGGTCTTAAGAGAAGGTTAAGATTCCTCTTGTGCCTGCGGCGAGACCGCGCACGGTCCACAGGTGTTGGCCCTACCGGTGGGAATAAGGGCCCGACGTCAGGCTCGTCGTTAAACCGAGCCCGTTACCCACCTGGGCAAACGACGCCCACGTACGGTCCACGTCGCCCTTCAATGTCTCTCTTGACCAATAGGCGTAGCCGGCGAGTTGACAAGGACCAGTGGGGGCCGGGGGCTTGGAGAGGGACTCCAAGTCCCGCCCTTCCCGGTGGGCCGGGAAATGC
modifications: lipid formulation; source: /note="Description of Unknown: GB virus C/Hepatitis G virus sequence"
B10: Yokose virus (nucleic acid, listed as Yokose virus)
DNA: AGTAAATTTTGCGTGCTAGTCGCTGAGCGTCAGACCGCAAAGTGAGTTTTTAGTGATCTAAAGTGAGGAGTTATTCTTACTGTCATCAAACACTACAAATAAACACGTTGAAATTATTTCCGGAAGAACAACTGTCCGGAATCAAAGACG
modifications: lipid formulation
B11: Hepacivirus B (nucleic acid)
DNA: ACCACAAACACTCCAGTTTGTTACACTCCGCTAGGAATGCTCCTGGAGCACCCCCCCTAGCAGGGCGTGGGGGATTTCCCCTGCCCGTCTGCAGAAGGGTGGAGCCAACCACCTTAGTATGTAGGCGGCGGGACTCATGACGCTCGCGTGATGACAAGCGCCAAGCTTGACTTGGATGGCCCTGATGGGCGTTCATGGGTTCGGTGGTGGTGGCGCTTTAGGCAGCCTCCACGCCCACCACCTCCCAGATAGAGCGGCGGCACTGTAGGGAAGACCGGGGACCGGTCACTACCAAGGACGCAGACCTCTTTTTGAGTATCACGCCTCCGGAAGTAGTTGGGCAAGCCCACCTATATGTGTTGGGATGGTTGGGGTTAGCCATCCATACCGTACTGCCTGATAGGGTCCTTGCGAGGGGATCTGGGAGTCTCGTAGACCGTAGCAC
modifications: Hepacivirus B
B12: Equine hepacivirus (nucleic acid, listed as Hepacivirus sp.)
chain: ACCTCCGTGCTATGCACGGTGCGTTGTCAGCGTTTTGCGCTTGCATGCGCTACACGCGTCGTCCAACGCGGAGGGATTCTTCCACATTACCATGTGTCACTCCCCCTATGGAGGGTTCCACCCCGCCCACACGGAAATAGGTTAACCATACCTATAGTACGGGTGAGCGGGTCCTCCTAGGGCCCCCCCGGCAGGTCGAGGGAGCTGAAATTCGTGAATCCGTGAGTACACGGAAATCGCGGCTTGAACGTCATACGTGACCTTCGGAGCCGAAATTTGGGCGTGCCCCACGAAGGAAGGCGGGGGCGGTGTTGGGCCGCCGCCCCCTTTATCCCACGGTCTGATAGGATGCTTGCGAGGGCACCTGCCGGTCTCGTAGACCATAGGAC
modifications: lipid formulation

Tested on: HEK293 cells
Assay type: cell-based, human
Conditions: circular RNA encoding Gluc with the listed IRES (UTR truncated to 675 nt) transfected into HEK293 cells; supernatant after 24 hours

Molecule	Expression (luminescence from secreted Gluc protein)
B1	4.41E+06
B2	3.14E+05
B3	8.61E+04
B4	8.42E+04
B5	7.84E+04
B6	1.79E+05
B7	8.07E+04
B8	8.82E+06
B9	1.36E+05
B10	8.55E+04
B11	8.84E+04
B12	8.40E+04
